Reference: doi:10.1101/2021.01.21.427698 (bioRxiv, 2021)

Target: the molecule itself
Test: negative-stain single-particle electron microscopy

B1: human SEPT9_i3 with a noncleavable C-terminal Strep-tag-II (as in the mammalian octamers-9_i3) (natural protein)
chain: MERDRISALKRSFEVEEVETPNSTPPRRVQTPLLRATVASSTQKFQDLGVKNSEPSARHVDSLSQRSPKASLRRVELSGPKAAEPVSRRTELSIDISSKQVENAGAIGPSRFGLKRAEVLGHKTPEPAPRRTEITIVKPQESAHRRMEPPASKVPEVPTAPATDAAPKRVEIQMPKPAEAPTAPSPAQTLENSEPAPVSQLQSRLEPKPQPPVAEATPRSQEATEAAPSCVGDMADTPRDAGLKQAPASRNEKAPVDFGYVGIDSILEQMRRKAMKQGFEFNIMVVGQSGLGKSTLINTLFKSKISRKSVQPTSEERIPKTIEIKSITHDIEEKGVRMKLTVIDTPGFGDHINNENCWQPIMKFINDQYEKYLQEEVNINRKKRIPDTRVHCCLYFIPATGHSLRPLDIEFMKRLSKVVNIVPVIAKADTLTLEERVHFKQRITADLLSNGIDVYPQKEFDEDSEDRLVNEKFREMIPFAVVGSDHEYQVNGKRILGRKTKWGTIEVENTTHCEFAYLRDLLIRTHMQNIKDITSSIHFEAYRVKRLNEGSSAMANGVEEKEPEAPEM
- binding result: binds
